# Reference: patent US20210292396A1
# B1: ePGT121.18.17 (ePGT121.18.H17 VH and ePGT121.17.L1 VL) (antibody, V domains shown)
# VH: QMQLQESGPGLVKPGETLSLTCSVSGASISSSYWSWLRETPGKGLEWIGYTHHSGDTNYAPSLKSRVTIGLDPSKNQVSLSLTSVTAADTAVYYCARTLHGRRIYGVVAFNEYYTYFYWPTWGKGTQVTVSS
# VL: SDISVAPGETVRITCGGESIGSRAVQWYQHRPGQAPRLIIYNNQDRPPGIPERFSGSPDIDFGTTATLTISNVEAGDEATYYCHIWDSRRPTNWELGPGTTLTVL
# Experiments:
# Assay in all cases: cell-based or functional assay
# [1] = target: Env of HIV isolate 0013095-2.11 (clade C) (HIV)
# [2] = target: Env of HIV isolate 001428-2.42 (clade C) (HIV)
# [3] = target: Env of HIV isolate 00836-2.5 (clade C) (HIV)
# [4] = target: Env of HIV isolate 25711-2.4 (clade C) (HIV)
# [5] = target: Env of HIV isolate 3016.v5.c45 (clade D) (HIV)
# [6] = target: Env of HIV isolate 3365.v2.c20 (clade A) (HIV)
# [7] = target: Env of HIV isolate 3873.v1.c24 (clade C) (HIV)
# [8] = target: Env of HIV isolate 3988.25 (clade B) (HIV)
# [9] = target: Env of HIV isolate 45_01dG5 (clade B) (HIV)
# [10] = target: Env of HIV isolate 6095.v1.c10 (clade ACD) (HIV)
# [11] = target: Env of HIV isolate 6101.10 (clade B) (HIV)
# [12] = target: Env of HIV isolate 6471.v1.c16 (clade C) (HIV)
# [13] = target: Env of HIV isolate 6545.v4.c1 (clade AC) (HIV)
# [14] = target: Env of HIV isolate 96ZM651.02 (clade C) (HIV)
# [15] = target: Env of HIV isolate BG1168.01 (clade B) (HIV)
# [16] = target: Env of HIV isolate BJOX010000.06.2 (clade AE) (HIV)
# [17] = target: Env of HIV isolate C3347.c11 (clade AE) (HIV)
# [18] = target: Env of HIV isolate CH181.12 (clade BC) (HIV)
# [19] = target: Env of HIV isolate CNE10 (clade B) (HIV)
# [20] = target: Env of HIV isolate CNE20 (clade BC) (HIV)
# [21] = target: Env of HIV isolate CNE55 (clade AE) (HIV)
# [22] = target: Env of HIV isolate CNE7 (clade BC) (HIV)
# [23] = target: Env of HIV isolate MB201.A1 (clade A) (HIV)
# [24] = target: Env of HIV isolate MI369.A5 (clade A) (HIV)
# [25] = target: Env of HIV isolate MS208.A1 (clade A) (HIV)
# [26] = target: Env of HIV isolate P1981.C5.3 (clade G) (HIV)
# [27] = target: Env of HIV isolate Q769.d22 (clade A) (HIV)
# [28] = target: Env of HIV isolate Q769.h5 (clade A) (HIV)
# [29] = target: Env of HIV isolate QH0515.01 (clade B) (HIV)
# [30] = target: Env of HIV isolate QH0692.42 (clade B) (HIV)
# [31] = target: Env of HIV isolate R1166.C1 (clade AE) (HIV)
# [32] = target: Env of HIV isolate TH023.6 (clade AE) (HIV)
# [33] = target: HIV Env of isolate 0077.v1.c16 (HIV)
# [34] = target: HIV Env of isolate 25711-2.4 (HIV)
# [35] = target: HIV Env of isolate 25925-2.22 (HIV)
# [36] = target: HIV Env of isolate 3873.v1.c24 (HIV)
# [37] = target: HIV Env of isolate 426c (HIV)
# [38] = target: HIV Env of isolate 6631.v3.c10 (HIV)
# [39] = target: HIV Env of isolate A03349M1.vrc4a (HIV)
# [40] = target: HIV Env of isolate CAP256.206.C9 (HIV)
# [41] = target: HIV Env of isolate CE703010217.B6 (HIV)
# [42] = target: HIV Env of isolate CNE21 (HIV)
# [43] = target: HIV Env of isolate CNE58 (HIV)
# [44] = target: HIV Env of isolate DU156.12 (HIV)
# [45] = target: HIV Env of isolate P0402.c2.11 (HIV)
# [46] = target: HIV Env of isolate TV1.29 (HIV)
# [47] = target: HIV Env of isolate TZA125.17 (HIV)
# [48] = target: HIV Env of isolate X1254.c3 (HIV)
# [49] = target: HIV Env of isolate ZA012.29 (HIV)
binder,measurement,setting,value
B1,"IC50, pseudovirus neutralization",[1],1.68 µg/mL
same,"IC50, pseudovirus neutralization",[2],0.004 µg/mL
same,"IC50, pseudovirus neutralization",[3],48.9 µg/mL
same,"IC50, pseudovirus neutralization",[4],0.006 µg/mL
same,"IC50, pseudovirus neutralization",[5],> 50 µg/mL
same,"IC50, pseudovirus neutralization",[6],0.007 µg/mL
same,"IC50, pseudovirus neutralization",[7],0.011 µg/mL
same,"IC50, pseudovirus neutralization",[8],0.004 µg/mL
same,"IC50, pseudovirus neutralization",[9],0.003 µg/mL
same,"IC50, pseudovirus neutralization",[10],0.045 µg/mL
same,"IC50, pseudovirus neutralization",[11],0.004 µg/mL
same,"IC50, pseudovirus neutralization",[12],1.09 µg/mL
same,"IC50, pseudovirus neutralization",[13],> 50 µg/mL
same,"IC50, pseudovirus neutralization",[14],0.003 µg/mL
same,"IC50, pseudovirus neutralization",[15],> 50 µg/mL
same,"IC50, pseudovirus neutralization",[16],> 50 µg/mL
same,"IC50, pseudovirus neutralization",[17],> 50 µg/mL
same,"IC50, pseudovirus neutralization",[18],0.004 µg/mL
same,"IC50, pseudovirus neutralization",[19],0.004 µg/mL
same,"IC50, pseudovirus neutralization",[20],0.002 µg/mL
same,"IC50, pseudovirus neutralization",[21],> 50 µg/mL
same,"IC50, pseudovirus neutralization",[22],0.007 µg/mL
same,"IC50, pseudovirus neutralization",[23],0.004 µg/mL
same,"IC50, pseudovirus neutralization",[24],0.008 µg/mL
same,"IC50, pseudovirus neutralization",[25],> 50 µg/mL
same,"IC50, pseudovirus neutralization",[26],0.002 µg/mL
same,"IC50, pseudovirus neutralization",[27],> 50 µg/mL
same,"IC50, pseudovirus neutralization",[28],> 50 µg/mL
same,"IC50, pseudovirus neutralization",[29],0.035 µg/mL
same,"IC50, pseudovirus neutralization",[30],0.035 µg/mL
same,"IC50, pseudovirus neutralization",[31],> 50 µg/mL
same,"IC50, pseudovirus neutralization",[32],> 50 µg/mL
same,"IC80, pseudovirus neutralization",[33],> 50 µg/mL
same,"IC80, pseudovirus neutralization",[34],0.017 µg/mL
same,"IC80, pseudovirus neutralization",[35],0.021 µg/mL
same,"IC80, pseudovirus neutralization",[36],0.02 µg/mL
same,"IC80, pseudovirus neutralization",[37],1 µg/mL
same,"IC80, pseudovirus neutralization",[38],0.269 µg/mL
same,"IC80, pseudovirus neutralization",[39],0.02 µg/mL
same,"IC80, pseudovirus neutralization",[40],0.009 µg/mL
same,"IC80, pseudovirus neutralization",[41],0.016 µg/mL
same,"IC80, pseudovirus neutralization",[42],0.005 µg/mL
same,"IC80, pseudovirus neutralization",[43],0.195 µg/mL
same,"IC80, pseudovirus neutralization",[44],0.006 µg/mL
same,"IC80, pseudovirus neutralization",[45],0.009 µg/mL
same,"IC80, pseudovirus neutralization",[46],0.031 µg/mL
same,"IC80, pseudovirus neutralization",[47],0.549 µg/mL
same,"IC80, pseudovirus neutralization",[48],0.015 µg/mL
same,"IC80, pseudovirus neutralization",[49],0.014 µg/mL
